Experimental data reported in patent US20260265334A1, “STAPLED PEPTIDES” (THE FLOREY INSTITUTE OF NEUROSCIENCE AND MENTAL HEALTH, priority 2023, published 2026).
Bridge positions count the residues as written; N and C are the ends. Square brackets hold non-standard residues; d marks the D form. Ends that are not written are not given here. Peptide text beside a SMILES is read from it. I, II: the chains in the order shown. αMeF = C[C@](N)(Cc1ccccc1)C(=O)O

How the values were obtained:
[1] = target: RXFP4 (relaxin family peptide receptor 4) on CHO-K1-RXFP4 cells (UniProt Q8TDU9); experiment: competition with 5 nM Eu-DTPA-R3/I5 on CHO-K1-RXFP4 cells
Sequence of RXFP4 (relaxin family peptide receptor 4) on CHO-K1-RXFP4 cells (UniProt Q8TDU9) (Q8TDU9 whole entry): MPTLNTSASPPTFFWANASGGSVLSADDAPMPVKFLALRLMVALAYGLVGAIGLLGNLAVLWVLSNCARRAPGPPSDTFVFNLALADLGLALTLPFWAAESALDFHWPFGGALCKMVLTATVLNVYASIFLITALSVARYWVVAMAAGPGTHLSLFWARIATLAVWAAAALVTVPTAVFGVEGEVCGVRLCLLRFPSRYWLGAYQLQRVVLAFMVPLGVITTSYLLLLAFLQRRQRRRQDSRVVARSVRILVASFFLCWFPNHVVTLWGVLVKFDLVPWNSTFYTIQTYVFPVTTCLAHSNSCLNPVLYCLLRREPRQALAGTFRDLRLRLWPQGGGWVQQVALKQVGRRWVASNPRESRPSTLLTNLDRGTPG

[2] = target: RXFP3 (relaxin family peptide receptor 3) on CHO-K1-RXFP3 cells (UniProt Q9NSD7); experiment: competition with 5 nM Eu-H3B1-22R on CHO-K1-RXFP3 cells
[3] = target: RXFP4-NLuc (nanoluciferase-tagged RXFP4) (UniProt Q8TDU9); experiment: cell-based or functional assay
Sequence of RXFP4-NLuc (nanoluciferase-tagged RXFP4) (UniProt Q8TDU9) (Q8TDU9 whole entry): as above

[4] = target: RXFP3-NLuc (human RXFP3 with Nanoluciferase on the C-terminus) (human) (UniProt Q9NSD7); experiment: cell-based or functional assay
[5] = target: RXFP3 (relaxin family peptide receptor 3) on CHO-K1-RXFP3 cells (UniProt Q9NSD7); experiment: cell-based or functional assay
[6] = target: RXFP4 (relaxin family peptide receptor 4) on CHO-K1-RXFP4 cells (UniProt Q8TDU9); experiment: cell-based or functional assay
RXFP4 [7] = target: T1, RXFP4 (Homo sapiens, UniProt Q8TDU9); experiment: Inhibition of forskolin-induced cAMP activity in CHO-K1-RXFP4 cells (pCRE β-galactosidase reporter); assay type: cell-based; parameters: expressed in transfected cells; conditions: for EC50: RXFP4, Table 5, read-out: cAMP pEC50 (converted)
T1 sequence (Q8TDU9 whole entry): as above
Experimental: For agonist assays, cells were stimulated with forskolin (5 μM for RXFP3, 1 μM for RXFP4)±increasing concentrations of each peptide for 6 hours. Data were expressed as the % forskolin activity, whereby 100% was defined as forskolin alone and 0% as maximum agonist stimulation (1 μM Analogue 2 for RXFP3 and 1 μM Analogue 13 for RXFP4). Data were analysed and plotted using GraphPad Prism 9 and are expressed as the mean±SEM of the pooled data. Statistical analysis was conducted using one-way ANOVA with Uncorrected Fisher's LSD post-hoc analysis using GraphPad Prism 9.
(§1) An additional analogue of INSL5 was utilised as a control, INSL5-A13, having an A chain (SEQ ID NO: 9) and a B chain (SEQ ID NO: 10) with a first disulfide bond between Cys 1 of the A chain and Cys 7 of the B chain, and a second disulfide bond between Cys 14 of the A chain and Cys 19 of the B chain:
(§2) Competition binding and cAMP activity assay were conducted by a procedure analogous to that described above for Example 3. The results are shown in FIG. 24 (RXFP3) and FIG. 25 (RXFP4).

RXFP4 [8] = target: T1, RXFP4; experiment: Eu-R3/I5 competition binding assay in CHO-K1-RXFP4 cells; parameters: expressed in transfected cells; conditions: read-out: Eu-R3/I5 pKi (converted)
Experimental: An Eu-R3/15 competition binding assay in CHO-K1-RXFP4 cells was carried out.
(§3) Competition binding curves for each peptide were performed in triplicate and each experiment was performed independently at least three times. Fluorescent measurements were carried out at excitation of 340 nm and emission of 614 nm on a BMG POLARstar plate reader (BMG Labtech, Melbourne, Australia). Pooled data were presented as mean±S.E.M. of specific binding and are fitted using a one-site binding curve in GraphPad Prism version 8 (GraphPad Inc., San Diego, USA). Statistical analyses were conducted using one-way analysis of variance with uncorrected Fisher's least significant difference (LSD) post-hoc analysis in GraphPad Prism version 9.
as §1, §2

RXFP4 [9] = target: T1, RXFP4; experiment: SmBiT-R3/I5 NanoBiT competition binding assay, HEK-LgBiT-RXFP4 membrane fractions; parameters: expressed in transfected cells; conditions: RXFP4, 2 nM SmBiT-R3/I5; Table 5; read-out: SmBiT R3/I5 pKi (converted)
Experimental: Furthermore, a SmBiT-R3/15 competition binding assay was performed. All peptides were examined for their binding affinity to RXFP4 utilizing a competition NanoLuc® Binary Technology (NanoBiT™) binding assay. Briefly, HEK-LgBiT-RXFP4 crude membrane fractions (25 μg protein) were incubated with 2 nM SmBiT-R3/15 and increasing concentrations of competing peptides in binding buffer (0.5% BSA, 20 mM HEPES pH 7.5, 1.5 mM CaCl2), 50 mM NaCl) in a total of 100 μL in 96-well Optiplates (PerkinElmer, Waltham MA, USA). After 1 hour of shaking at room temperature, 1.25 μM final concentration of coelenterazine 400a was added, and luminescence measurements were recorded using a MicroBeta Microplate Counter (PerkinElmer, Waltham MA, USA). Each concentration-response curve was tested in triplicate, and each experiment was repeated at least three times with data being expressed as the mean±standard error of the mean (S.E.M) % specific.

RXFP3 [10] = target: T2, RXFP3 (Homo sapiens, UniProt Q9NSD7); experiment: Inhibition of forskolin-induced cAMP activity in CHO-K1-RXFP3 cells (pCRE β-galactosidase reporter); assay type: cell-based; conditions: 5 μM forskolin, 6 hours, Table 2, read-out: cAMP pEC50 (converted)
T2 construct: expressed in transfected cells
T2 sequence (Q9NSD7 1-469): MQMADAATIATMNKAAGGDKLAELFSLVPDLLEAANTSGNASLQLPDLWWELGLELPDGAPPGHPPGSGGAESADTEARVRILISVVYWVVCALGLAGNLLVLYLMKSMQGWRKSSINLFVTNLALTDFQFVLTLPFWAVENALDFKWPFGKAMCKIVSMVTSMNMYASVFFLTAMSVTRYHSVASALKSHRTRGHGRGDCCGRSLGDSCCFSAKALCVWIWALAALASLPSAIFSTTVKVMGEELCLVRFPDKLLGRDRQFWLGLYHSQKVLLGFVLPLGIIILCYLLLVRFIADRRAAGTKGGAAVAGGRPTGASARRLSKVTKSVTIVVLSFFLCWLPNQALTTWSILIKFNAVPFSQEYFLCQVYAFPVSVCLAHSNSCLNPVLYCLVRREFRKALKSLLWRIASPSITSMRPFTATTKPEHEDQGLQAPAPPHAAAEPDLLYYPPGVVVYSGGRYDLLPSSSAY
Experimental: Since RXFP3 is coupled to Gi/o proteins, peptides were tested for their ability to activate RXFP3 as measured via their ability to inhibit forskolin-induced cAMP activity in CHO-K1-RXFP3 or CHO-K1-RXFP4 cells transfected with a pCRE (cAMP Response Element) β-galactosidase reporter plasmid (as described in Belgi, A et al., Structure and function relationship of murine insulin-like peptide 5 (INSL5): free C-terminus is essential for RXFP4 receptor binding and activation. Biochemistry 2011, 50 (39), 8352-61; and Haugaard-Kedstrom, L. M et al., Synthesis and pharmacological characterization of a europium-labelled single-chain antagonist for binding studies of the relaxin-3 receptor RXFP3. Amino Acids 2015, 47 (6), 1267-71). For agonist assays, cells were stimulated with forskolin (5 μM for RXFP3, 1 μM for RXFP4)±increasing concentrations of each peptide for 6 hours. Data were expressed as the % forskolin activity, whereby 100% was defined as forskolin alone and 0% as maximum agonist stimulation (1 μM Analogue 2 for RXFP3 and 1 μM Analogue 13 for RXFP4). Data were analysed and plotted using GraphPad Prism 9 and are expressed as the mean±SEM of the pooled data. Statistical analysis was conducted using one-way ANOVA with Uncorrected Fisher's LSD post-hoc analysis using GraphPad Prism 9.
as §2

RXFP3 [11] = target: T2, RXFP3; experiment: Eu-H3B1-22R competition binding assay in CHO-K1-RXFP3 cells; conditions: 5 nM Eu-H3B1-22R, mean ± SEM (n), Table 2, read-out: Eu-H3B1-22R pKi (converted)
Experimental: An Eu-H3B1-22R competition binding assay was conducted in CHO-K1-RXFP3 cells.
as §3, §2

[12] = In vitro serum stability in human serum at 37° C.; conditions: serum
[13] = target: T3, RXFP3 (relaxin family peptide receptor 3) on CHO-K1-RXFP3 cells, Q9NSD7; experiment: cell-based or functional assay
T3 chain: T2 sequence (Q9NSD7 1-469)

[14] = target: T4, RXFP4 (relaxin family peptide receptor 4) on CHO-K1-RXFP4 cells (UniProt Q8TDU9 1-374, limits assumed); experiment: cell-based or functional assay
T4 sequence (Q8TDU9 whole entry): as the sequence (Q8TDU9 whole entry) above

[15] = target: T5, RXFP3-NLuc (human RXFP3 with Nanoluciferase on the C-terminus) (human, UniProt Q9NSD7 1-469); experiment: cell-based or functional assay
T5 sequence (looked up): T2 sequence (Q9NSD7 1-469)

[16] = target: RXFP4-NLuc (nanoluciferase-tagged RXFP4) (UniProt Q8TDU9 1-374); experiment: cell-based or functional assay
Sequence of RXFP4-NLuc (nanoluciferase-tagged RXFP4) (UniProt Q8TDU9 1-374) (Q8TDU9 whole entry): as the sequence (Q8TDU9 whole entry) above

[17] = target: T4, RXFP4 (relaxin family peptide receptor …); experiment: competition with 5 nM Eu-DTPA-R3/I5 on CHO-K1-RXFP4 cells
[18] = target: T6, RXFP3 (relaxin family peptide receptor 3) on CHO-K1-RXFP3 cells (UniProt Q9NSD7 1-469, limits assumed); experiment: cell-based or functional assay
T6 sequence (looked up): T2 sequence (Q9NSD7 1-469)

[19] = target: T6, RXFP3 (relaxin family peptide receptor …); experiment: competition with 5 nM Eu-H3B1-22R on CHO-K1-RXFP3 cells
[20] = target: T6, RXFP3 (relaxin family peptide receptor …); experiment: competition with Eu-H3B1-22R on CHO-K1-RXFP3 cells
[21] = target: T6, RXFP3 (relaxin family peptide receptor …); experiment: cell-based or functional assay; remark: listed apart in the source
[22] = target: T4, RXFP4 (relaxin family peptide receptor …); experiment: cell-based or functional assay; remark: listed apart in the source
[23] = target: T4, RXFP4 (relaxin family peptide receptor …); experiment: competition with Eu-R3/I5 on CHO-K1-RXFP4 cells

Work on “R3/I5 (R3/I5 chimeric relaxin peptide, RXFP3 agonist) (ligand)” yielded a pKi [1] of 8.28, a pKi [2] of 7.77 and an RXFP4 pEC50 (β-arrestin2 recruitment, NanoBRET AUC) [3] of 7.56. For the same molecule, the RXFP3 pEC50 (β-arrestin2 recruitment, NanoBRET AUC) [4] was 7.91, the cAMP pEC50 [5] was 8.89 and the cAMP pEC50 [6] was 8.98.

For `CC[C@H](C)[C@H](NC(=O)[C@H](Cc1ccc(O)cc1)NC(=O)[C@@H](NC(=O)[C@@H](NC(=O)[C@](C)(Cc1ccccc1)NC(=O)[C@H](CCCNC(=N)N)NC(=O)[C@@H](NC(=O)[C@H](Cc1ccc(O)cc1)NC(=O)[C@](C)(Cc1ccccc1)NC(=O)[C@H](CC(C)C)NC(=O)CNC(=O)[C@@H](N)CO)[C@@H](C)CC)C(C)C)[C@@H](C)CC)C(=O)N[C@@H](CO)C(=O)NCC(=O)NCC(=O)N[C@@H](CO)C(=O)N[C@@H](CCCNC(=N)N)C(=O)N[C@@H](Cc1c[nH]c2ccccc12)C(=O)O` [aF stapled analogue] (H-SGL[αMeF]YIR[αMeF]VIYISGGSRW-OH), the EC50 (RXFP4 [7]) was 0.0871 µM, the Ki (RXFP4 [8]; RXFP4, Table 5) was 0.158 µM and the Ki (RXFP4 [9]) was 0.0309 µM.

For `CC[C@H](C)[C@H](NC(=O)[C@H](Cc1ccc(O)cc1)NC(=O)[C@@H](NC(=O)[C@@H](NC(=O)[C@](C)(Cc1ccccc1)NC(=O)[C@H](CCCNC(=N)N)NC(=O)[C@@H](NC(=O)[C@H](Cc1ccc(O)cc1)NC(=O)[C@](C)(Cc1ccccc1)NC(=O)[C@H](CC(C)C)NC(=O)CNC(=O)[C@@H](N)CO)[C@@H](C)CC)C(C)C)[C@@H](C)CC)C(=O)N[C@@H](CCC(=O)O)C(=O)NCC(=O)NCC(=O)N[C@@H](CO)C(=O)N[C@@H](CCCNC(=N)N)C(=O)N[C@@H](Cc1c[nH]c2ccccc12)C(=O)O` [πI5B7-24-GG-S19E] (H-SGL[αMeF]YIR[αMeF]VIYIEGGSRW-OH; N-terminus and C-terminus assumed), the EC50 (RXFP4 [7]) was 0.0407 µM and the Ki (RXFP4 [9]) was 0.00741 µM.

In the case of SGREFIRAVIFTSGGSRW-OH [H3B10-27], the EC50 (RXFP3 [10]) is reported as over 10 µM, the Ki (RXFP3 [11]) is reported as over 10 µM and the “cAMP pEC50” value (RXFP4 [7]; RXFP4, CHO-K1-RXFP4 cells, 1 μM forskolin, 6 hours, Table 3) is reported as “No activity (3)”. It also gave a half-life at 400 µg/mL [12] of about 20 min and a Ki (RXFP4 [8]; RXFP4, CHO-K1-RXFP4 cells, 5 nM Eu-R3/I5, Table 3) of over 10 µM.

B1: H3B10-27(13/17F) (peptide)
peptide: SGRFFIRFVIFTSGGSRW
modifications: not checked
Work on B1 yielded a cAMP pEC50 [13] of under 5.

B2: H3B10-27(13/17αF) (peptide)
peptide: SGR[αMeF]FIR[αMeF]VIFTSGGSRW
notes: 18-residue single-chain RXFP3 agonist, non-covalently stapled; also called πH3B; target peptide
In the case of B2, the “cAMP pEC50” value [14] is reported as 7.26, the “RXFP3 pEC50 (β-arrestin2 recruitment, NanoBRET AUC)” value [15] is reported as 7.19 and the “RXFP4 pEC50 (β-arrestin2 recruitment, NanoBRET AUC)” value [16] is reported as 5.57. For the same molecule, the pKi [17] was 6.81, the “cAMP pEC50” value [18] was 8.16 and the pKi [19] was 6.83.

B3: H3B10-22R13/17αF (Formula X, RXFP3 antagonist) (peptide)
peptide: SGR[αMeF]FIR[αMeF]VIFTSR
notes: 14 residues
In the case of B3, the pKi [20] is reported as 7.6, the “RXFP3 Antagonist potency pIC50” value [21] is reported as 6.98 and the “RXFP4 cAMP pEC50” value [22] is reported as under 5. B3: no binding [23].

B4: H3B1-22R (Formula XI, known single chain antagonist of RXFP3) (peptide)
peptide: RAAPYGVRLSGREFIRAVIFTSR
notes: 23 residues
In the case of B4, the pKi [20] is reported as 7.64, the “RXFP3 Antagonist potency pIC50” value [21] is reported as 6.25 and the binding result [23] is reported as “no binding”.

B5: H3B10-27 (native B10-27) (peptide)
peptide: SGREFIRAVIFTSGGSRW
For B5, the “cAMP pEC50” value [18] was under 5.

B6: Human insulin-like peptide 7 (INSL7), also known as human relaxin-3 (H3 relaxin) (ligand)
chain 1: DVLAGLSSSCCKWGCSKSEISSLC
chain 2: RAAPYGVRLCGREFIRAVIFTCGGSRW
modifications: disulfide I:10-I:15; not fully specified; cysteine pairing not given here
With B6 the “cAMP pEC50” value [14] was 8.94 and the pKi [17] was 8.42.
